Data as given in the supplement of paper PMC10567573.

B1: APBB1IP (parent)
chain: SQVSMWDQRWQDHQPLLPITDVP
B2: FBF1 (parent)
chain: FGDSPKAEKRQIGDQEGPRPARST

Variants of: B1
Assay: protein stability index of a GFP-peptide fusion (GPS, HEK-293T) (PSI 1-6); higher = more stable
Details: c terminus: native
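Further: lentivirally expressed fusions sorted by FACS into six bins by GFP to DsRed ratio, PSI derived from sequencing read proportions per bin multiplied by bin number.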

Protein stability index: each site, then its substitutions
P23: D 3.6 | F 2.21 | N 1.81 | Y 2.74 | I 2.48 | W 2.17 | K 2.03 | Q 1.61 | R 4.33 | M 1.19 | H 2.58 | S 3.01 | G 1.91 | E 2.9 | C 2.85 | A 2.56 | L 2.06 | T 2.01
L17: T 2.58 | S 2.34 | V 2.71 | Q 2.59 | W 2.96 | P 2.84 | Y 2.19 | R 2.26
I19: H 3.78 | R 3.17 | D 4.17 | S 3 | E 3.36 | N 3.55 | L 2.03 | A 2.67 | V 2.17 | C 2.15 | Q 2.87 | G 3.67 | P 3.04 | K 4.04 | M 2.62 | F 2.79 | W 1.36 | T 3.03 | Y 2.84
P18: Y 2.07 | F 1.36 | Q 1.71 | D 3.42 | K 2.1 | N 2.56 | R 2.29 | L 1.41 | S 2.12 | E 2.55 | W 1.28 | H 2.38 | T 1.31 | G 1.76 | C 1.82 | A 2.91 | M 1.71
V22: I 2.19 | F 2.72 | P 2.83 | G 2.42 | E 3.45 | M 2.53 | K 3.37 | H 2.75 | T 2.65 | R 2.99 | S 2.8 | A 2.31 | N 2.69 | W 2.19 | Y 1.91 | C 2.06 | D 3.85 | L 2.43 | Q 2.98
T20: M 2.04 | Q 2.61 | P 2.7 | L 1.92 | S 3.27 | H 2.37 | A 2.33 | F 2.58 | N 3.23 | I 1.79 | K 3.24 | D 2.67 | G 1.77 | V 1.65 | C 2.34 | Y 1.88 | R 2.32
D21: Y 1.65 | E 1.77 | G 1.94 | C 5.18 | Q 1.53 | K 2.44 | H 1.75 | M 1.62 | A 2.56 | P 2.07 | W 1.63 | N 1.7 | F 1.44 | S 1.6 | T 2.88

Variants of: B2
Assay: as above
Details: c terminus: a fixed tail appended

Protein stability index of substitutions, site by site:
P5: Q 4.55 | S 4.84 | F 3.64 | D 5.72 | V 4.13 | A 4.85 | W 1.37 | N 5.53 | G 4.79 | C 4.63 | H 5 | K 4.43 | R 4.75 | L 4.58 | Y 4.86 | E 5.24 | T 5.19 | M 4.88 | I 4.89
Q11: T 5 | M 5.22 | E 5.33 | L 4.7 | W 3.76 | F 3.59 | N 5.38 | A 5.6 | S 5.29 | Y 4.45 | H 5.16 | C 5.06 | I 4.61 | G 5.34 | K 4.86 | D 5.29 | P 5.25 | V 5.08
A7: T 4.44 | Y 4 | D 5.53 | R 5.15 | S 5.09 | I 5.03 | Q 5.1 | K 5.31 | N 5.24 | H 4.03 | F 3.85 | L 5.32 | E 5.89 | V 3.47 | G 4.89
G13: R 5.09 | Q 5.45 | Y 4.86 | S 4.82 | C 5.04 | I 4.44 | L 4.17 | D 5.53 | N 5.01 | M 4.24 | W 2.74 | P 5.16 | H 4.69 | A 4.98 | E 5.34 | F 4.71 | T 5.03 | K 5.24 | V 4.54
G2: E 5.83 | N 4.16 | V 1.77 | K 4.72 | W 5.31 | T 4.82 | I 3.83 | H 4.58 | M 4.96 | C 4.19 | Q 4.99 | A 4.53 | P 5.29 | F 4.63 | S 4.96 | R 5.98 | Y 5.18 | D 4.94
I12: L 4.78 | Q 5.5 | G 5.03 | M 5.04 | Y 4.24 | P 5.12 | E 5.27 | A 4.73 | F 4.47 | T 4.32 | S 5.47 | R 5.17 | C 2.83 | D 4.89 | N 5.5 | V 5.4
K9: V 4.89 | P 5.54 | D 5.52 | I 5.23 | H 5.22 | S 5.47 | T 5.17 | R 5.46 | N 5.93 | Y 4.74 | F 4.43 | E 5.1 | Q 5.53 | A 4.97 | G 5.2
F1: D 5.81 | G 5.72 | W 5.69 | P 5.58 | Y 5.42 | E 5.52 | N 5.54 | M 5.85 | L 5.36 | C 4.95 | A 5.87 | K 5.79 | T 5.76 | I 5.41 | R 5.67 | S 5.51 | H 5.52
E8: C 4.11 | P 4.97 | I 4.26 | Q 4.48 | S 4.58 | L 3.87 | F 3.27 | A 4.84 | R 4.43 | Y 3.39 | D 5.48 | N 4.53 | T 3.77
R10: M 5.06 | T 5.58 | N 5.42 | E 5.63 | L 4.59 | W 3.46 | H 4.63 | S 5.44 | K 4.76 | C 5.02 | A 5.42 | Y 4.97 | I 5.19 | Q 4.86 | D 5.29
S4: I 5.33 | Y 4.31 | F 4.75 | C 5.01 | N 4.79 | E 5.2 | G 4.96 | P 5.05 | M 4.68 | R 4.88 | T 4.16 | D 5.43 | Q 4.75 | K 4.79 | L 5.27 | H 5.43 | W 2.73 | A 4.3 | V 5.61
D3: Q 5.25 | P 5.14 | I 5.04 | Y 4.67 | E 5.41 | F 5.01 | T 4.99 | H 4.49 | V 5.55 | M 4.57 | S 4.89 | R 4.97 | K 4.17 | N 5.06 | L 5.13 | A 4.79 | W 3.87 | C 4.62
K6: Q 3.71 | D 5.22 | T 5.56 | S 5.64 | W 4.57 | F 4.06 | V 4.24 | I 4.78 | C 5.52 | P 4.89 | N 5.08 | Y 4.8 | E 5.25 | L 4.84 | A 5.55
D14: F 4.65 | E 5.03 | C 4.7 | A 4.87
